Data reported in patent publication US6492137B1, “Response element compositions and assays employing same” (The Salk Institute for Biological Studies, priority 1989, dated 2002).

T1: Retinoic acid receptor alpha (RARα), in CV-1 cells (Homo sapiens, UniProt P10276 P10276:1-462)
T1 sequence: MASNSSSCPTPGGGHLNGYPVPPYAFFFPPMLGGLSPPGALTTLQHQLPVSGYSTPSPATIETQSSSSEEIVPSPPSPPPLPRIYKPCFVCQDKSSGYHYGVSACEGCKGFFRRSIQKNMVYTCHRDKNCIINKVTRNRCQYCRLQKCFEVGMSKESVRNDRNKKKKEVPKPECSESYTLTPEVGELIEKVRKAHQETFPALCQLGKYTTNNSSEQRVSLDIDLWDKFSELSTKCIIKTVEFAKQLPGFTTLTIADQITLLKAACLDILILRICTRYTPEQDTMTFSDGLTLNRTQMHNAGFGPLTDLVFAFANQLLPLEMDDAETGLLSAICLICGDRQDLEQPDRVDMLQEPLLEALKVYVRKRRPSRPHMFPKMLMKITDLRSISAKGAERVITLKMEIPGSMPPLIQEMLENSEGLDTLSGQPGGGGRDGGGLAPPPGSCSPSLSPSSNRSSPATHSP

T2: Thyroid hormone receptor beta (TRβ), in CV-1 cells (Homo sapiens, UniProt P10828 P10828:1-461)
T2 sequence: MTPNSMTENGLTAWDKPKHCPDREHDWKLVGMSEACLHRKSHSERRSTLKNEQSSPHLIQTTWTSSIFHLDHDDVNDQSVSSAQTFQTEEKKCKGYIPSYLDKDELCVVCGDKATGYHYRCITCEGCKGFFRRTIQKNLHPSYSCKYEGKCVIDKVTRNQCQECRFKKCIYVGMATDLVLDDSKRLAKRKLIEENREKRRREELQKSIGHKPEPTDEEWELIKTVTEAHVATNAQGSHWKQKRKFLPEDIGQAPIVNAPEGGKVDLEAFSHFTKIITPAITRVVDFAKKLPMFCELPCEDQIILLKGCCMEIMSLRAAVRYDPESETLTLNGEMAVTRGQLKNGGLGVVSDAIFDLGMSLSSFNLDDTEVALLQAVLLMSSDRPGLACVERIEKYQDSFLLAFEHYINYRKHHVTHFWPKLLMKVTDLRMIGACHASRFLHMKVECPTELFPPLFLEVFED


Columns and labels:
[1] = target: T1, Retinoic acid receptor alpha (RARα), in …; assay: cell_activity; RA 1 µM, CV-1; details: tags: RSV or pRS expression vector; 5'-agct overhangs
Procedure: (§1) For cotransfection assays, a monkey kidney cell line CV-1 was kept in Dulbecco's modified Eagle's medium (DMEM) supplemented with 10% charcoal-resin double split calf bovine serum. Transfections were performed via calcium-phosphate precipitation method as described by Umesono, et al. in Cell 57: 1139–1146 (1989), with 0.5 μg of a pRS receptor expression plasmid, 1.0 μg of a reporter CAT plasmid, 5 μg of pRAS-βGAL [Umesono, et al., Cell 57: 1139–1146 (1989)] as an internal control, and 8.5 μg of carrier plasmid pUC19. The cells were transfected for 8 hours; after washing the DNA precipitates, the cells were then incubated for an additional 36 hours with or without the ligand (T_3, 100 nM; RA, 1 μM; 1,25-(OH)_2 vitamin D_3, 100 nM). Cell extracts were prepared for βGAL and CAT assays, as described by Umesono, et al., supra. Transfection of F9 teratocarcinoma cells was carried out employing a similar method except the cells were incubated for 12 hours in the presence of the DNA precipitates, and the RA was added at 1 μM for another 24 hours before harvesting the cells. 2, 5, and 4 μg of the reporter, pRAS-βGAL, and pUC19 were used, respectively.
(§2) Starting from the MHC-TRE (MHC-N), a set of oligonucleotides (see FIG. 4a) were designed to introduce variations in the half-site spacing (MCH+1), the half-site sequence (MHC-T), or both (MHC-R). A single copy of these oligonucleotides was placed in the basal reporter construct ΔSV-CAT (designated by "(−)" in FIG. 4b), giving rise to a set of CAT reporter plasmids together with one encoding TREp. Parallel cotransfections with expression plasmids for TRβ or RARα were performed in CV-1 cells along with the ΔSV-CAT reporter containing a single copy of the variant HRE. After addition of hormone (RA, 1 μM; T_3, 100 nM), the cell extracts were assayed for the CAT activity by […] the β-galactosidase activity produced by cotransfected pRAS-βGAL. In the figure, numbers in the columns indicate the level of induction of CAT activity by the hormone.

[2] = target: T2, Thyroid hormone receptor beta (TRβ), in …; assay: cell_activity; T3 100 nM, CV-1; details: tags: pRShTRβ, 5'-agct overhangs
Procedure: as §1, §2

Row | Binder | activity [1] [fold induction] | activity [2] [fold induction] | activity ([2]; label: 32P) [fold induction]
1 | MHC-T (dsDNA) DNA 1: AGCTGGAGGTGACAGGAGGTCAGCAAGCT DNA 2: AGCTTGCTGACCTCCTGTCACCTCCAGCT | 2.6 | 15 | –
2 | MHC-N (dsDNA) DNA 1: AGCTGGAGGTGACAGGAGGACAGCAAGCT DNA 2: AGCTTGCTGTCCTCCTGTCACCTCCAGCT | – | – | 10
3 | TREp (dsDNA) DNA 1: AGCTTCAGGTCATGACCTGAGAGCT DNA 2: AGCTCTCAGGTCATGACCTGAAGCT | 9 | 14 | –
4 | MHC+1 (dsDNA) DNA 1: AGCTGGAGGTGAACAGGAGGACAGCAAGCT DNA 2: AGCTTGCTGTCCTCCTGTTCACCTCCAGCT | 4 | < 2 | –
5 | MHC-R (dsDNA) DNA 1: AGCTGGAGGTGAACAGGAGGTCAGCAAGCT DNA 2: AGCTTGCTGACCTCCTGTTCACCTCCAGCT | 7.4 | – | –
